What was measured:
[1] = target: T1, GalacTag6_fHbp (N636A); test: mixed in vitro at room temperature ~16 h, SDS-PAGE (FIG. 3A)
T1 construct: also called variant GalacTag6_fHbp
T1 chain: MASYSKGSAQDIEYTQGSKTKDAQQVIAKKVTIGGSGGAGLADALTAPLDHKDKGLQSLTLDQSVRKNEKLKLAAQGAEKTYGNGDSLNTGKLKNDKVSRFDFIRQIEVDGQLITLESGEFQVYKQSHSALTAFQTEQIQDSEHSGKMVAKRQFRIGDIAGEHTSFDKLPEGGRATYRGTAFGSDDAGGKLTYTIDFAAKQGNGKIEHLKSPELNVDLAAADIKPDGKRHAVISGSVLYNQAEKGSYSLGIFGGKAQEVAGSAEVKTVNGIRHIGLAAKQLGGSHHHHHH
Experimental: (§1) Using these variant GalacDock6 and GalacTag6_fHbp polypeptides, pairs as shown in Table 3 were mixed in vitro at a 1:1 molar ratio at room temperature for approximately 16 hours, and samples were then subjected to SDS-PAGE electrophoresis.

[2] = target: T2, GalacTag7_fHbp (Neisseria meningitidis serogroup B / …, UniProt E6MV22 32-274); test: mixed in vitro at room temperature ~16 h, SDS-PAGE
T2 construct: Fusion of a GBS BP-2a tag peptide with N. meningitidis fHbp variant 1.1
T2 sequence: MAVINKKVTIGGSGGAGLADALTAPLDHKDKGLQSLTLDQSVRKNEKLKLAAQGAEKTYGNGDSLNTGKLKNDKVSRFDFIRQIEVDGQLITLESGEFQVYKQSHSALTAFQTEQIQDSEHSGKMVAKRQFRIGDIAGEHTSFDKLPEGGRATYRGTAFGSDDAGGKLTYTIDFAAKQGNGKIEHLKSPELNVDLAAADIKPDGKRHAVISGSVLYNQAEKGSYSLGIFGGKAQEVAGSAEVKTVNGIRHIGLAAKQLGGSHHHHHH
Experimental: (§2) Each GalacDock/GalacTag pair was mixed in vitro at a 1:1 molar ratio at room temperature for approximately 16 hours, and samples were then subjected to SDS-PAGE electrophoresis.

[3] = target: T3, GalacTag6_GBSFerritinLMG14747; test: SDS-PAGE and HPLC-SEC (FIG. 4)
T3 construct: Self-assembled ferritin nanoparticle displaying GalacTag6; also called GalacTag6 + Ferritin NP Subunit: LMG_14747
T3 chain: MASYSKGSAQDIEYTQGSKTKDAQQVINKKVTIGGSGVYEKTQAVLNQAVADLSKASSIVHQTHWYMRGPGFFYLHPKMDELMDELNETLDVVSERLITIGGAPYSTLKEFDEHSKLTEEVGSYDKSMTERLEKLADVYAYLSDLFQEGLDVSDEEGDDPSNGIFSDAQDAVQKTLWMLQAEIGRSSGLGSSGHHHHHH

[4] = target: T4, GalacTag6_GBSFerritinDK-PW-092; test: 1:1 mix with the nanoparticle, room temperature, SDS-PAGE and HPLC-SEC (FIGS. 5A, 5B)
T4 construct: also called GalacTag6 + GBS ferritin NP subunit from DK-092-PW
T4 chain: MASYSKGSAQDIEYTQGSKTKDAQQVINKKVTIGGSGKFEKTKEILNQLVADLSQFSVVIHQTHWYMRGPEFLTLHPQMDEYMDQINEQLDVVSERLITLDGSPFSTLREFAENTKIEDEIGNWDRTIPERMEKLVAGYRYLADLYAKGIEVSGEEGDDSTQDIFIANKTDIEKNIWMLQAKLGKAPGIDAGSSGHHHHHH

[5] = target: T5, GalacTag6_fHbp; test: 1:1 molar mix, room temperature ~16 h, SDS-PAGE
T5 construct: Fusion of a GBS BP-2a tag peptide with N. meningitidis fHbp variant 1.1; also called GalacTag6_ffibp; wt GalacTag
T5 chain: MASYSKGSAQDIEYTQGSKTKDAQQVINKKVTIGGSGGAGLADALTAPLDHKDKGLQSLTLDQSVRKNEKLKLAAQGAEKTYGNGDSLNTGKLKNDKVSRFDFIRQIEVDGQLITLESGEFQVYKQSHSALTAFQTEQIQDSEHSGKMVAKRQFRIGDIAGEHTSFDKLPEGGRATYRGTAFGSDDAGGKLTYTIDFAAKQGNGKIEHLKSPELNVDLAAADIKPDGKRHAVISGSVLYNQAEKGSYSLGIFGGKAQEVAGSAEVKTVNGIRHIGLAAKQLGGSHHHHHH
Experimental: as §2

[6] = target: T6, GalacTag6_GBSFerritinDK-PW-092+N-terminal helix; test: 1:1 mix with the nanoparticle, room temperature ~16 h, SDS-PAGE and HPLC-SEC (FIG. 6)
T6 construct: Self-assembled ferritin nanoparticle displaying GalacTag6; also called GalacTag6_GBSFerritinDK-PW-092+ helix; GalacTag6 + GBS ferritin NP subunit from DK-092-PW w/N-terminal helix
T6 chain: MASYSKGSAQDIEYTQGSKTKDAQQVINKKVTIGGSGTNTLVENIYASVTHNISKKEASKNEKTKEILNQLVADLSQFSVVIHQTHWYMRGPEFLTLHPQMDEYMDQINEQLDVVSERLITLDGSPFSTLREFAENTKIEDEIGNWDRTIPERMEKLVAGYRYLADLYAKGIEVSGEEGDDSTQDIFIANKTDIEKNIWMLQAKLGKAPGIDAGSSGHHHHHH

[7] = target: T5, GalacTag6_fHbp; test: mixed in vitro at room temperature ~16 h, SDS-PAGE (FIG. 3A)
Experimental: as §1

[8] = target: T7, GalacTag5_fHbp (Neisseria meningitidis serogroup B / …, UniProt E6MV22 32-274); test: mixed in vitro at room temperature ~16 h, SDS-PAGE
T7 construct: Fusion of a GBS BP1 tag peptide with N. meningitidis fHbp variant 1.1
T7 sequence: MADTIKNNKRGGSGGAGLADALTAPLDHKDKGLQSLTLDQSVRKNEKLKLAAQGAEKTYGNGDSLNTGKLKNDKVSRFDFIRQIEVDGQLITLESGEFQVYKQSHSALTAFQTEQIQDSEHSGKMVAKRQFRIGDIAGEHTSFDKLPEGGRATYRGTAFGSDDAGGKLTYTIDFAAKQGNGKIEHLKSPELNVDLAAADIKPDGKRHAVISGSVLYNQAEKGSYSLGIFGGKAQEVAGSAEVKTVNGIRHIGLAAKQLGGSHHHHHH
Experimental: as §2

B1: GalacDock6 with MHHHHHHS leader (designed binder)
chain: MHHHHHHSNTETKPQVDKNFADKELDYANNKKDKGTVSASVGDVKKYHVGTKILKGSDYKKLIWTDSMTKGLTFNNDIAVTLDGATLDATNYKLVADDQGFRLVLTDKGLEAVAKAAKTKDVEIKITYSATLNGSAVVEVLETNDVKLDYGNNPTIENEPKEGIPVDKKITVNKTWAVDGNEVNKADETVDAVFTLQVKDGDKWVNVDSAKATAATSFKHTFENLDNAKTYRVIERVSGYAPEYVSFVNGVVTIKNNKDSNEPTPINPSEPKVVTYGRKFVKTNKDGKERLAGATFLVKKDGKYLARKSGVATDAEKAAVDSTKSALDAAVKAYNDLTKEKQEGQDGKSALATVSEKQKAYNDAFVKANYSYEWVEDKNAKNVVKLISNDKGQFEITGLTEGQYSLEETQAPTGYAKLSGDVSFNVN
notes: It forms a covalent isopeptide bond with GalacTag6; also called GalacDoc6; GlacDock6
binding result [1]: no binding (tested: 1:1 molar ratio) | binding result [2]: no binding (tested: 1:1 molar ratio) | binding result [3]: binds | binding result [4]: binds | binding result [5]: binds | binding result [6]: binds

B2: GalacDock6 variant K463A (designed binder)
chain: MHHHHHHSNTETKPQVDKNFADKELDYANNKKDKGTVSASVGDVKKYHVGTKILKGSDYKKLIWTDSMTKGLTFNNDIAVTLDGATLDATNYKLVADDQGFRLVLTDKGLEAVAKAAKTKDVEIKITYSATLNGSAVVEVLETNDVKLDYGNNPTIENEPKEGIPVDKKITVNKTWAVDGNEVNKADETVDAVFTLQVKDGDKWVNVDSAKATAATSFKHTFENLDNAKTYRVIERVSGYAPEYVSFVNGVVTIKNNKDSNEPTPINPSEPKVVTYGRKFVATNKDGKERLAGATFLVKKDGKYLARKSGVATDAEKAAVDSTKSALDAAVKAYNDLTKEKQEGQDGKSALATVSEKQKAYNDAFVKANYSYEWVEDKNAKNVVKLISNDKGQFEITGLTEGQYSLEETQAPTGYAKLSGDVSFNVN
binding result [7]: no binding (tested: 1:1 molar ratio)

B3: GalacDock6 variant E589A (designed binder)
chain: MHHHHHHSNTETKPQVDKNFADKELDYANNKKDKGTVSASVGDVKKYHVGTKILKGSDYKKLIWTDSMTKGLTFNNDIAVTLDGATLDATNYKLVADDQGFRLVLTDKGLEAVAKAAKTKDVEIKITYSATLNGSAVVEVLETNDVKLDYGNNPTIENEPKEGIPVDKKITVNKTWAVDGNEVNKADETVDAVFTLQVKDGDKWVNVDSAKATAATSFKHTFENLDNAKTYRVIERVSGYAPEYVSFVNGVVTIKNNKDSNEPTPINPSEPKVVTYGRKFVKTNKDGKERLAGATFLVKKDGKYLARKSGVATDAEKAAVDSTKSALDAAVKAYNDLTKEKQEGQDGKSALATVSEKQKAYNDAFVKANYSYEWVEDKNAKNVVKLISNDKGQFEITGLTEGQYSLEATQAPTGYAKLSGDVSFNVN
binding result [7]: no binding (tested: 1:1 molar ratio)

B4: GalacDock6 variant E589Q (designed binder)
chain: MHHHHHHSNTETKPQVDKNFADKELDYANNKKDKGTVSASVGDVKKYHVGTKILKGSDYKKLIWTDSMTKGLTFNNDIAVTLDGATLDATNYKLVADDQGFRLVLTDKGLEAVAKAAKTKDVEIKITYSATLNGSAVVEVLETNDVKLDYGNNPTIENEPKEGIPVDKKITVNKTWAVDGNEVNKADETVDAVFTLQVKDGDKWVNVDSAKATAATSFKHTFENLDNAKTYRVIERVSGYAPEYVSFVNGVVTIKNNKDSNEPTPINPSEPKVVTYGRKFVKTNKDGKERLAGATFLVKKDGKYLARKSGVATDAEKAAVDSTKSALDAAVKAYNDLTKEKQEGQDGKSALATVSEKQKAYNDAFVKANYSYEWVEDKNAKNVVKLISNDKGQFEITGLTEGQYSLEQTQAPTGYAKLSGDVSFNVN
binding result [7]: no binding (tested: 1:1 molar ratio)

B5: GalacDock7 with MHHHHHHS leader (designed binder)
chain: MHHHHHHSNTETKPQVDKNFADKELDYANNKKDKGTVSASVGDVKKYHVGTKILKGSDYKKLIWTDSMTKGLTFNNDIAVTLDGATLDATNYKLVADDQGFRLVLTDKGLEAVAKAAKTKDVEIKITYSATLNGSAVVEVLETNDVKLDYGNNPTIENEPKEGIPVDKKITVNKTWAVDGNEVNKADETVDAVFTLQVKDGDKWVNVDSAKATAATSFKHTFENLDNAKTYRVIERVSGYAPEYVSFVNGVVTIKNNKDSNEPTPINPSEPKVVTYGRKFVKTNKDGKERLAGATFLVKKDGKYLARKSGVATDAEKAAVDSTKSALDAAVKAYNDLTKEKQEGQDGKSALATVSEKQKAYNDAFVKANYSYEWVEDKNAKNVVKLISNDKGQFEITGLTEGQYSLEETQAPTGYAKLSGDVSFNVNATSYSKGSAQDIEYTQGSKTKDA
binding result [2]: no binding (tested: 1:1 molar ratio)

B6: GalacDock5 with MHHHHHHS leader (designed binder)
chain: MHHHHHHSNVVTDEPKTDKDVKKLGQDDAGYTIGEEFKWFLKSTIPANLGDYEKFEITDKFADGLTYKSVGKIKIGSKTLNRDEHYTIDEPTVDNQNTLKITFKPEKFKEIAELLKGMTLVKNQDALDKATANTDDAAFLEIPVASTINEKAVLGKAIENTFELQYDHTPDKADNPKPSNPPRKPEVHTGGKRFVKKDSTETQTLGGAEFDLLASDGTAVKWTDALIKANTNKNYIAGEAVTGQPIKLKSHTDGTFEIKGLAYAVDANAEGTAVTYKLKETKAPEGYVIPDKEIEFTVSQTSYNTKPTDITVDSAD
notes: Expressed in E. coli and purified on a HisTrap HP column
binding result [8]: no binding (tested: 1:1 molar ratio)

From US20230250142A1 (GlaxoSmithKline, published 2023)
